This test addresses A/Solomon Islands/3/2006 (H1N1) HA (influenza A virus A/Solomon Islands/3/2006 (H1N1)). The test is described as follows: cryo-EM structure.

“A/Solomon Islands/3/2006 (H1N1) HA (natural protein)” gave a stoichiometry N of 3.

The values above are taken from article doi:10.1101/2025.11.06.687086.
